# From the nanobody polyreactivity screen of Harvey et al. (2022)
# Assay: yeast display, Sf9 membrane polyspecificity reagent, FACS + sequencing; frameworks hold sequencing errors
# Method in brief: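 Synthetic nanobody libraries on Saccharomyces cerevisiae BJ5465 were galactose-induced for 36–48 hours, stained 1 hour at 4 °C with 10% biotinylated, detergent-solubilized Sf9 membrane reagent and enriched on streptavidin microbeads. FACS then separated cells into low and high (top ~1%) gates by anti-HA (expression) and streptavidin (reagent binding) fluorescence. Genes were colony-PCR amplified, MiSeq 2 × 250 sequenced and CDR-length filtered. A clone's polyreactivity label is that of its gate of origin.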
row,Sequence,polyreactivity (PSR sort gate)
1,QVQIVESGGGLVQAGVSLRLSCAASGSTFETNTMGWYRKAPGKERELVAAITTGGRTYYADSLKGRFSISRDNAKNNVYLQMNSLKPEDTAVYYCAVAYWNRQSLFRMYYWGQGTQVTVSS,high polyreactivity
2,QVQIVESGGGLVQAGVSLRLSCAPSGSTFHLNAMGWYRQAPGKERELVAAISRGGSTYYADSVKGRFTISRDNAKNTVYLQMNRLKPEDTAVYYCNAVWSNFRLGYDYWGQGTQVNVSS,high polyreactivity
3,QVQIVESGGGLVQARGSLLLSSAASGFTSNYYALGWYRHAPGKESELVAAITTGGSTHYADSVKGRFTFSRDNAQNTVYLQLNSLKQVDSAVYYCAAGTNRQQQRYFHNGGYYQYNYWGQGTQVTVSS,low polyreactivity
4,QVQIVESGGGVVQAGGSLRLICAASGSTFNPYAMGSYRQAPGKERELVAAIRGRSGRTYYADSVKGRFTISRDNAKNTVYLQMTSLIPEDTAVYYCAARFSEYRTHPSEVYYWGQGTQVTVSS,high polyreactivity
5,QVQIVESGGRIVQAGGSIRLSCAASGSTFLFYAMGRSRQAPGKERQLVAAISYSGGSTFYADSVKGRFTISRDNAKNTVYLQMNSLKPEDTAVYYCAAESYSYGFTHEYWGQGTQETVSS,high polyreactivity
6,QVQIVESGRGLVQAGGSLRLSCAASGRIFYNDLMGWYRQAPGKERELVASISTGGTTYYSDSVKGRFTISRDNAKNTVYLQMNSLKPEDTAVYYCNAGLFYAPPFYTMDYWGQGTQVTVSS,low polyreactivity
7,QVQIVESVGGLLQAGGSLRLSCAASGRIFQGYAMGWYRQAPGKERELVASISSCGRTYYADSVKGRFTISRDNAKNTVYLQFNSLTPEDTAVYYCAKRPQFFWSNPYDYWGLGTQVTVSS,high polyreactivity
8,QVQIVETGGGLVQAGGSLGLSCAASGSNFGGNTMPCYRQAPGIERALVAAISRSGGSTYYADSVKGRFTISRDIAQNSVYVQMNSLKPEDTAVYYCNRKQAGQAQGYDYWGLGTQVTVSS,high polyreactivity
9,QVQIVVSGGGLVQAGGRRRLSCAASGRFFWVYAMGWYRQAPGKERELVAAISRSGGITSYADSVKGRYTISRDNANYTVYLQMNSLKPEDTAVYCCAARSYFDGFYYWGQGAQVTVSS,high polyreactivity
10,QVQLAESGGGLVQAGGSLRLSCAASGRIFSGYAMGWSRQAPGKERELVAAITSVGSTNYADSVKGRFTISRDNAKNTVYLQMNSLKPEDTAVYYCAAKFVRPYRMYYWGQGTQVTVSS,high polyreactivity
11,QVQLAESGGGLVQAGGSLRLSCAASGRTFNLYAMGWYRQAPGKERELVASISSGGSTYYADSVKGRFTISRDNAKNTVYLQMNSLIPEDTAVYYCAARLAYGPRPMPSYEYYYWGQGTQVTVSS,low polyreactivity
12,QVQLAESGGGLVQAGGSLRLSCAASGSIFRLNAMGWYRQAPGKERELVAAINSGTNTYYADSVKGRFTISRDNAKNTVYLQMNSLKPEDTAVYYCAADWNDWHYDYWGQGTQVTVSS,low polyreactivity
13,QVQLAESGGGLVQAGGSLRLSCAASGSIFRLNAMGWYRQAPGKERELVAAINSGTNTYYADSVKGRFTISRDNAMNTVYLQMNSLKPEDTAVYYCAADWNDWHYDYWGQGTQVTVSS,low polyreactivity
14,QVQLAESGGGLVQAGGSLRLSCAASGSILFNMGWYRQAPGKERELVAAIRYGGGRTYYADSVKGRFTISRDNAKNTVYLQMNSLKPEDTAVYYCAAPYKRNAGFDYWGQGTQVTVSS,low polyreactivity
15,QVQLEDSGGGLLQAGGSLRLSCAASGRILYLYTMGWYRQAPGKERELVAAISRGGSTYYADSVKGRFTISRDNAKNTVYLQMNSLNPEDTAVYYCSADARGYQFNYWGQGTQVTVSS,high polyreactivity
16,QVQLEDSGGGLVQAGGSLRLSCAASGFTFSYNAMGWYIQAPGKERELVAAISSRGTSTYYADSVKGRFTISRDNAKNTVYLQMNSLKPEDTAVYYCNTVPYFYLTFYPHYDYWGQGTQVTVSS,high polyreactivity
17,QVQLEDSGGGLVQAGGSLRLSCAASGRIFYTYAMGWYRQAPGKERELVAAINRSGSSTYYADSVKGRFTISRDNAKNNVYLQMNSLKPEDTAVYYCNAQSYLYYGWVLTDVDYWGQGTQVTVSS,low polyreactivity
18,QVQLEDSGGGLVQAGGSLRLSCAASGRTFPYKAMGWYRQAPGKERELVAAITSSGGSTYYADSVKGRFTISRDNAKNTVYLQMNSLKPEDTAVYYCAKGYYSPNYYYWGQGTQVTVSS,high polyreactivity
19,QVQLEDSGGGLVQAGGSLRLSCAASGRTLYLYAMGWYRQAPGKERELVAAIDWRGTSTYYADSVKGRFTISRDNAKNTVYLEMNSLKPEDTAVYYCNARFRSYLRWYQRDYWGQGTKVTVSS,low polyreactivity
20,QVQLEDSGGGLVQAGGSLRLSCAASGSIFATNAMGWYRQGPGKERELVAAISRSGASTYYADSVKGRFTISRDNAKNTVYLQMNRLKPEDTAVYYCNKVLYRDAYHSYGFEYWGQGTQVTVSS,high polyreactivity
21,QVQLEDSGGGLVQAGGSLRLSCAASGSTFILNAMGWYRDAPGKERELVATISSSDTSTYYADSVKGRFTISRDNAKNTVYLQMNSLKPEDTAVYYCNADYYTTSYLQRVYHYGVEYDYWGQGTQVTVSS,low polyreactivity
22,QVQLEDSGGGLVQAGGTHSLSCAASGFTFARNTMGWYRQAPGKERELVAAISWRGGRTYYADSVTGRFTISRDNAKNTDYLQMNRLKPEDRAVYYCNGVILKLGDALYDYWGEGTQVTVSS,high polyreactivity
23,QVQLEDSGGGLVQAGVSLRLSSDASGSTIAGYVMGWYRQAPGKERELVAAISRSGGSTYYADSVKGRFTISRDNEKNTVYLQMNSLKPEDTAVYYCASRNSPGFPGDYWGQGSQVTVSS,high polyreactivity
24,QVQLEDSLGGLVQAGGSLRLSCAASGGIFGLYDMGWYRQEPGKERELVAAISWSGGDTYYADSVKGRFTISRDNAKNTVYLQMNSLKPEDTAVYYCAADTYYYSGYEYDYWGQGTQVTVSS,high polyreactivity
25,QVQLEDSRVGLVQAVGILRLSCASSGSTIDDNVMGWYRQAPRNERELVAAICSSGGSPYYADSVKGRFTISRDNAKNTDYLLMNSLKPEDTAVYYCNAVYFRLWGYYDRRSYNYWGQGTQVTVSS,low polyreactivity
26,QVQLEEAVGGLLQAGGSLRFSCAASGGLFWVYAMGRYRQAPGKERELVAAISNSDTSTSYADSVKGRFTISRDNAQNTVYLQMNSLKAEDTAVYYCKADSPSLSGDSWGQGTQVNVSS,low polyreactivity
27,QVQLEESAGGLVQAGGSLRLSCAASGLTFNYYAMGWYRQAPGKERELVAAITGRGGSTYYADSVKGRFTISRDNAKNTVYLQMNSLKPEDTAVYYCAADGGTRGYDYWGQGTQVTVSS,low polyreactivity
28,QVQLEESGAALVQAGGSLRLSCAAMGWYRQSPGKERELLATITWSGGSTYYADSVKGRFTISRDNAKNTVYLQMNSLKPEDTAVYYCTARATLLSPANTIRGYDYWGQGTQVTVSS,low polyreactivity
29,QVQLEESGGGFVQAGGRLRLSCAASGSIFQAYFMGWYRQAPGKERELVADISRSGGRTYYADSVKGRFTISRDNAKNTVYLQMNSLKPEDTGVYYCAADWRHLLYRGGLQYEYWGQGTQVTVSS,high polyreactivity
30,QVQLEESGGGFVQAGGSLRLSCAASGYIFFPHAMGWYRQATWKERELVAAINSRGASTYYADSVKGRFTISRDNAKNTVSLQMNSLKPVDTAVYYCAKGSGLHIYHYYGVPYDYWGQGTQVTVSS,low polyreactivity
